{"source": "paper PMC8158685", "about": "“MexAB-OprM Efflux Pump Interaction with the Peptidoglycan of Escherichia coli and Pseudomonas aeruginosa” (International Journal of Molecular Sciences, 2021)", "binders": {"B1": {"name": "MexA (natural protein)", "chain": "CGKSEAPPPAQTPEVGIVTLEAQTVTLNTELPGRTNAFRIAEVRPQVNGIILKRLFKEGSDVKAGQQLYQIDPATYEADYQSAQANLASTQEQAQRYKLLVADQAVSKQQYADANAAYLQSKAAVEQARINLRYTKVLSPISGRIGRSAVTEGALVTNGQANAMATVQQLDPIYVDVTQPSTALLRLRRELASGQLERAGDNAAKVSLKLEDGSQYPLEGRLEFSEVSVDEGTGSVTIRAVFPNPNNELLPGMFVHAQLQEGVKQKAILAPQQGVTRDLKGQATALVVNAQNKVELRVIKADRVIGDKWLVTEGLNAGDKIITEGLQFVQPGVEVKTVPAKNVASAQKADAAPAKTDSKG", "notes": "MexA, periplasmic membrane fusion protein of the MexAB-OprM efflux pump, Pseudomonas aeruginosa; wild type; The pure protein was reloaded on Ni-NTA for the detergent exchange, so the His tag was probably still on it; Natural MexA is a lipoprotein whose signal peptide is cut; also called MFP; periplasmic membrane fusion protein; source: for one experiment exchanged into C12E8 on Ni-NTA"}, "B2": {"name": "OprM (wild type, full-length) (natural protein)", "chain": "CSLIPDYQRPEAPVAAAYPQGQAYGQNTGAAAVPAADIGWREFFRDPQLQQLIGVALENNRDLRVAALNVEAFRAQYRIQRADLFPRIGVDGSGTRQRLPGDLSTTGSPAISSQYGVTLGTTAWELDLFGRLRSLRDQALEQYLATEQAQRSAQTTLVASVATAYLTLKADQAQLQLTKDTLGTYQKSFDLTQRSYDVGVASALDLRQAQTAVEGARATLAQYTRLVAQDQNALVLLLGSGIPANLPQGLGLDQTLLTEVPAGLPSDLLQRRPDILEAEHQLMAANASIGAARAAFFPSISLTANAGTMSRQLSGLFDAGSGSWLFQPSINLPIFTAGSLRASLDYAKIQKDINVAQYEKAIQTAFQEVADGLAARGTFTEQLQAQRDLVKASDEYYQLADKRYRTGVDNYLTLLDAQRSLFTAQQQLITDRLNQLTSEVNLYKALGGGWNQQTVTQQQTAKKEDPQA", "notes": "OprM, outer membrane factor of the MexAB-OprM efflux pump, Pseudomonas aeruginosa; wild type, 'OprM full-length'; The pure protein was reloaded on Ni-NTA for the detergent exchange, so the His tag was probably still on it; Natural OprM is a lipoprotein whose signal peptide is cut on export; also called OMF; outer-membrane factor channel; source: E. coli C43 deleted of acrB, pBAD33, purified …"}}, "key": {"[1]": {"target": "T1, OprM deleted of the flexible C-terminus residues 473-485 (OprMΔCter) (P. aeruginosa (PAO1 genome as template), UniProt Q51487 18-472)", "T1 construct": "signal peptide in the construct (forward primer begins at the ATG of the precursor); OprM of Pseudomonas aeruginosa PAO1 without its last 13 residues 473-485; PCR fragment NdeI-XmaI in pBAD33; also called OprM∆Cter; source: E. coli C43 deleted of acrB, pBAD33, purified (Ni-NTA, Superdex 200) in DDM", "T1 sequence (looked up)": "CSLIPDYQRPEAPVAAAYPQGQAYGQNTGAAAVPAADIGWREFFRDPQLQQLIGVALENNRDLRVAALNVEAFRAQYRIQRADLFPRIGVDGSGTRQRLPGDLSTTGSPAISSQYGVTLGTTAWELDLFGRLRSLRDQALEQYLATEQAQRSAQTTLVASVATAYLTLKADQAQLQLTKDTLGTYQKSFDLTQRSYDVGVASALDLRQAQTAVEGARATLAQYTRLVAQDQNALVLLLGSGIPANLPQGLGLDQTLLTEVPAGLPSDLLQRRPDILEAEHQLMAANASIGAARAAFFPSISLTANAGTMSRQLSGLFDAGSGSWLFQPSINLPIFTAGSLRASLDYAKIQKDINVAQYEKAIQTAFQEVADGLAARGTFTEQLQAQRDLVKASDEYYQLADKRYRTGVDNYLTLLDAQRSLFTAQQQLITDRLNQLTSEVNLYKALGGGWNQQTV", "assay": "pull-down; purified insoluble PG of P. aeruginosa PAO1 as the pelleted matrix; MexA and OprM pre-mixed 2:1 (PG:MexA:OprM 100:2:1); 20 mM Tris-HCl pH 8.0, 300 mM NaCl, 0.05% DDM; 1 h room temperature; three washes; pellet on SDS-PAGE; proteins released by lysozyme", "settings": "both partners purified"}, "[2]": {"target": "B2", "assay": "pull-down; purified insoluble peptidoglycan (PG) of E. coli C43 as the pelleted matrix; MexA and OprM pre-mixed 2:1 (PG:MexA:OprM 100:2:1); 20 mM Tris-HCl pH 8.0, 300 mM NaCl, 0.05% DDM; 1 h room temperature; three washes; pellet on SDS-PAGE; proteins released by lysozyme", "settings": "both partners purified"}, "[3]": {"target": "the molecule itself", "assay": "SEC; Superdex 200 gel filtration in TBS (20 mM Tris-HCl pH 8, 150 mM NaCl) with 0.05% DDM, last step of the purification"}, "MexA": {"target": "B1", "assay": "pull-down; PG of P. aeruginosa, DDM; MexA and OprM mixed at 3:1 compared with 2:1; ratio in the retained complex from relative band intensities on SDS-PAGE", "settings": "both partners purified"}}, "data": [{"binder": "B1", "values": [{"measurement": "binding result", "setting": "[1]", "value": "binds"}, {"measurement": "binding result", "setting": "[2]", "value": "binds"}]}, {"binder": "B2", "values": [{"measurement": "stoichiometry N", "setting": "[3]", "value": 3}, {"measurement": "stoichiometry N", "setting": "MexA", "value": "2 MexA:OprM"}]}]}
